Target: b-His6-BAK_(16-186) (UniProt Q16611)
Experiment: not given

Chain of UniProt Q16611 (Q16611 16-186): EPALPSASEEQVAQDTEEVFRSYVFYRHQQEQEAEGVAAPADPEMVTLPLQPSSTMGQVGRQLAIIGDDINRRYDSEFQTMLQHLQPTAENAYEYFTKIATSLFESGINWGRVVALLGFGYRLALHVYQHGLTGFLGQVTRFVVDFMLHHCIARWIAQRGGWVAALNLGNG

Kd [µM] | Substance
0.424 | BNIP5 BH3 peptide, 5-FAM labelled

Target: b-His6-BAK_(16-186) (UniProt Q16611)
Experiment: BLI

koff [s⁻¹] | Substance
0.16 | His6-SUMO-BNIP5 BH3 (peptide)

Target: b-His6-BAK_(16-186) (UniProt Q16611)
Experiment: fluorescence polarisation

Kd [µM] | Substance
> 20 | TRPM7 BH3 peptide, 5-FAM labelled
> 20 | CASP3 BH3 peptide, 5-FAM labelled
11 | PXT1 BH3 peptide, 5-FAM labelled
0.4 | BNIP5 BH3 peptide, 5-FAM labelled
> 20 | SLC19A1 BH3 peptide, 5-FAM labelled
> 20 | TRIM58 BH3 peptide, 5-FAM labelled
> 20 | TERT BH3 peptide, 5-FAM labelled
> 20 | NBEAL2 BH3 peptide, 5-FAM labelled
> 20 | SPNS1 BH3 peptide, 5-FAM labelled

Source: doi:10.1101/2022.05.07.491048
